Where two headings read alike, the source gives them in different places.
Key:
[1] = Small animal PET imaging and biodistribution study; assay type: in vivo, NSG mice; conditions: NSG, mouse, in vivo, iv, 7.4 MBq, total radioactivity
Experimental: (§1) Eleven NSG mice bearing subcutaneous xenograft tumors (U87 MG cells), with tumor sizes approximately 150 mm^3, were used. The mice were intravenously injected via the tail vein with approximately 7.4 MBq of ^68Ga-labeled SDYD01, SDYD02, SDYD03. SDYD04, SDYD05, SDYD06, SDYD07, SDYD08 or SDYD07-1 compounds, or with ^[…]-labeled FAPI-04 or FAP2286 compounds as tracers. Micro PET/CT imaging was performed at 30 min, 60 min, and 120 min post-injection. Static images were acquired in 3D mode for 20 minutes. Reconstruction was performed using the OSEM3D/MAP method to obtain attenuation-corrected PET/CT fusion images.
(§2) NSG mice bearing subcutaneous xenograft tumors (U87 MG cells) were divided into 3 groups, with 11 mice in each group. They were intravenously injected via the tail vein with ^68Ga-labeled SDYD01, SDYD02, SDYD03. SDYD04, SDYD05, SDYD06. SDYD07, SDYD08, or SDYD07-1 compounds, or with ^68Ga-labeled FAPI-04 or FAP2286 compounds as tracers. Tumor-bearing mice injected with ^68Ga-labeled compounds SDYD01, SDYD02, SDYD03, SDYD04, SDYD05, SDYD06, FAPI-04, as well as 68Ga-labeled compounds FAPI-04 and FAP2286, were euthanized at 30 min. 60 min, and 120 min, respectively, for each group. Tumor-bearing mice injected with ^68Ga-labeled compounds SDYD07, SDYD08, and SDYD07-1 were euthanized at 30 min, 60 min, and 90 min, respectively, for each group. Blood, tumors, and other major organs and tissues were collected, weighed, and measured for radioactivity. After radioactive decay correction, the standardized uptake value (SUV) and percentage injected dose per gram of tissue (% ID/g) were calculated. In these figures, (a) represents the PET/CT imaging results, (b) represents the biodistribution results, and (c) represents the relative ratios of radioactive uptake in tumor versus normal tissues.

[2] = system: subcutaneous xenograft tumors (U87 MG cells); experiment: Small animal PET imaging and biodistribution study; assay type: in vivo, NSG mice
Experimental: as §1, §2

[3] = Stability of radioligands in PBS buffer (radio-HPLC); assay type: physicochemical
Experimental: The purpose of this experiment was to test the stability of the radioligands under buffer conditions simulating the physiological environment. This stability is a prerequisite for further animal experiments.
(§3) 1. ^68Ga-SDYD01: ^68Ga-SDYD01 was added to PBS buffer (pH=7.4) and incubated at 37° C. The mixture samples were taken for radio-HPLC analysis after 0.5 hours, 1 hour, and 2 hours of incubation. The stability of ^68Ga-SDYD01 in PBS buffer: the radiochemical purities of ^68Ga-SDYD01 after incubation in PBS for 0.5 hours, 1 hour, and 2 hours were 98%, 97%, and 97%, respectively (FIG. 4).
(§4) 2. ^177Lu-SDYD01: ^177Lu-SDYD01 was added to PBS buffer (pH=7.4) and incubated at 37° C. The mixture samples were taken for radio-HPLC analysis after 24 hours, 48 hours, and 120 hours of incubation. The stability of ^177Lu-SDYD01 in PBS buffer: the radiochemical purities of ^177Lu-SDYD01 after incubation in PBS for 24 hours, 48 hours, and 120 hours were 97%, 96%, and 94%, respectively (FIG. 5).
as §3, with “^68Ga-SDYD02: ^68Ga-SDYD02” for “^68Ga-SDYD01: ^68Ga-SDYD01”, “^68Ga-SDYD02” for “^68Ga-SDYD01”, “96%, 95%” for “98%, 97%,”, “93%,” for “97%,”, “10).” for “4).”
as §4, with “^177Lu-SDYD02: ^177Lu-SDYD02” for “^177Lu-SDYD01: ^177Lu-SDYD01”, “^177Lu-SDYD02” for “^177Lu-SDYD01”, “95%, 91%” for “97%, 96%,”, “87%,” for “94%,”, “11).” for “5).”
as §3, with “1. ^68Ga-SDYD05: ^68Ga-SDYD05” for “1. ^68Ga-SDYD01: ^68Ga-SDYD01”, “of ^68Ga-SDYD05” for “of ^68Ga-SDYD01”, “98%, 96%” for “98%, 97%,”, “and 95%,” for “and 97%,”, “(FIG. 16).” for “(FIG. 4).”
as §4, with “^177Lu-SDYD05: ^177Lu-SDYD05” for “^177Lu-SDYD01: ^177Lu-SDYD01”, “^177Lu-SDYD05” for “^177Lu-SDYD01”, “97%, 96% and” for “97%,”, “96%,” for “96%, and 94%,”, “17).” for “5).”
1. ^68Ga-SDYD06: ^68Ga-SDYD06 was added to PBS buffer (pH=7.4) and incubated at 37° C. The mixture samples were taken for radio-HPLC analysis after 0.5, 1, and 2 hours of incubation. The stability of ^68Ga-SDYD06 in PBS buffer: the radiochemical purities of ^68Ga-SDYD06 after incubation in PBS for 0.5 hours, 1 hour, and 2 hours were 96%, 94% and 93%, respectively (FIG. 22).
2. ^177Lu-SDYD06: ^177Lu-SDYD06 was added to PBS buffer (pH=7.4) and incubated at 37° C. The mixture samples were taken for radio-HPLC analysis after 24 hours, 48 hours, and 120 hours of incubation.
1. ^68Ga-SDYD03: ^68Ga-SDYD03 was added to PBS buffer (pH=7.4) and incubated at 37° C. The mixture samples were taken for radio-HPLC analysis after 0.5 hours, 1 hour, and 2 hours of incubation. The stability of ^68Ga-SDYD03 PBS in PBS buffer: the radiochemical purities of ^68Ga-SDYD03 after incubation in PBS for 0.5 hours, 1 hour, and 2 hours were 96%, 96% and 95%, respectively (FIG. 27).
as §4, with “^177Lu-SDYD03: ^177Lu-SDYD03” for “^177Lu-SDYD01: ^177Lu-SDYD01”, “^177Lu-SDYD03” for “^177Lu-SDYD01”, “are 99%, 96%” for “were 97%, 96%,”, “28). […]” for “5).”

[4] = absolute uptake value in the tumor

Row | SMILES | tissue uptake at 0.5 h [1, 4] [%ID/g] | tissue uptake at 1 h [1, 4] [%ID/g] | radioactive uptake in the tumor sites (in words) ([2]; mouse, in vivo) | stability in PBS buffer (in words) [3] | tissue uptake at 0.5 h ([1]; 30 minutes post-injection, read-out: absolute uptake value in the tumor) [%ID/g] | tissue uptake at 1 h ([1]; 60 minutes post-injection, read-out: absolute uptake value in the tumor) [%ID/g] | radioactive uptake in the tumor sites (in words) ([2]; tail vein injection, U87 MG tumor-bearing NSG mice) | stability in PBS buffer (in words) ([3]; PBS buffer pH=7.4, 37° C.) | tissue uptake at 2 h [1, 4] [%ID/g] | radioactive uptake in non-target organs (in words) ([2]; mouse, in vivo) | target/non-target ratios (in words) ([2]; mouse, in vivo) | tumor uptake and tumor retention time, comparison (in words) ([2]; mouse, in vivo)
1 | CCCCCC(=O)N[C@@H]1CSCc2cc(CSCCNC(=O)[C@@H](CCCCNC(=O)CN3CCN(CC(=O)O)CCN(CC(=O)O)CCN(CC(=O)O)CC3)NC(=O)COCCOCCNC(=O)COCCOCCNC(=O)CCN3C(=O)CC(SCCNC(=O)CCC(=O)N[C@@H](CCCNC(=N)N)C(=O)N[C@@H](CCCNC(=N)N)C(=O)N[C@@H](Cc4ccc5ccccc5c4)C(=O)N[C@@H]4CSSC[C@@H](C(=O)N[C@@H](CCCNC(=N)N)C(N)=O)NC(=O)[C@H](CCCNC(N)=O)NC(=O)[C@H](CCCNC(=N)N)NC(=O)[C@H](Cc5ccc(O)cc5)NC(=O)[C@@H]5CCCN5C(=O)[C@H](CCCCN)NC(=O)[C@H](CCCCN)NC(=O)[C@H](CCCNC(N)=O)NC(=O)[C@H](Cc5ccc(O)cc5)NC4=O)C3=O)cc(c2)CSC[C@@H](C(=O)O)NC(=O)[C@H](Cc2ccccc2)NC(=O)[C@H](CCC(N)=O)NC(=O)C([C@@H](C)O)NC(=O)[C@@H]2CCCN2C(=O)[C@@H]2CCCN2C1=O (single isomer, unassigned) [^68Ga-SDYD02, metal not drawn] | ≥ 10 | ≥ 10 | significant radioactive uptake in the tumor sites | quite stable in PBS buffer | – | – | – | – | – | – | – | –
2 | CC(C)CC(CC(C)C)NC(=O)[C@H](Cc1cnc[nH]1)NC(=O)CNC(=O)C(NC(=O)[C@H](C)NC(=O)[C@H](Cc1c[nH]c2ccccc12)NC(=O)[C@H](CCC(N)=O)NC(=O)[C@@H](Cc1ccccc1)NC(=O)COCC(=O)Nc1ccc(CNC(=O)COCCOCCNC(=O)COCCOCCNC(=O)[C@H](CCCCNC(=O)CN2CCN(CC(=O)O)CCN(CC(=O)O)CCN(CC(=O)O)CC2)NC(=O)CCC(=O)N2CCN(CCCOc3ccc4nccc(C(=O)NCC(=O)N5CC(F)(F)C[C@H]5C#N)c4c3)CC2)cc1)C(C)C (single isomer, unassigned) [^68Ga-SDYD03, metal not drawn] | – | – | – | – | ≥ 10 | ≥ 10 | significant radioactive uptake in the tumor sites | quite stable in PBS buffer | – | – | – | –
3 | CCCCCC(=O)N[C@@H]1CSCc2cc(CSCCNC(=O)COCCOCCNC(=O)COCCOCCNC(=O)CSC3CC(=O)N(CCC(=O)N[C@H](CCCCNC(=O)CN4CCN(CC(=O)O)CCN(CC(=O)O)CCN(CC(=O)O)CC4)C(=O)NCc4ccc(C(=O)NCCC[C@@H]5C(=O)N[C@@H](CCCNC(=N)N)C(=O)N[C@@H](Cc6ccc7ccccc7c6)C(=O)NCC(=O)N[C@H](Cc6ccc(O)cc6)C(=O)N5C)cc4)C3=O)cc(c2)CSC[C@@H](C(=O)O)NC(=O)[C@H](Cc2ccccc2)NC(=O)[C@H](CCC(N)=O)NC(=O)C([C@@H](C)O)NC(=O)[C@@H]2CCCN2C(=O)[C@@H]2CCCN2C1=O (single isomer, unassigned) [^68Ga-SDYD06, metal not drawn] | ≥ 10 | ≥ 10 | significant radioactive uptake in the tumor sites | quite stable in PBS buffer | – | – | – | – | – | – | – | –
4 | N#C[C@@H]1CC(F)(F)CN1C(=O)CNC(=O)c1ccnc2ccc(OCCCN3CCN(C(=O)[C@H](CCCCNC(=O)CCN4C(=O)CC(SCC(=O)NCCOCCOCCOCCOCCC(=O)NCCCC[C@@H]5NC(=O)[C@@H](Cc6ccc(O)cc6)NC(=O)[C@H](CC(=O)O)NC(=O)CNC(=O)[C@H](CCCNC(=N)N)NC5=O)C4=O)NC(=O)CCC(C(=O)O)N4CCN(CC(=O)O)CCN(CC(=O)O)CCN(CC(=O)O)CC4)CC3)cc12 (single isomer, unassigned) [^68Ga-SDYD07, metal not drawn] | ≥ 10 | ≥ 10 | significant radioactive uptake in the tumor sites | quite stable in PBS buffer | – | – | – | – | ~10 | significantly reduced at 60 minutes | significantly increased target/non-target ratios | higher tumor uptake and longer tumor retention time
5 | CCCCCC(=O)N[C@H]1CSCc2cc(CSCCNC(=O)[C@H](CCCCNC(=O)CCN3C(=O)CC(SCC(=O)NCCOCCOCCOCCOCCC(=O)NCCCC[C@@H]4NC(=O)[C@@H](Cc5ccc(O)cc5)NC(=O)[C@H](CC(=O)O)NC(=O)CNC(=O)[C@H](CCCNC(=N)N)NC4=O)C3=O)NC(=O)CCC(C(=O)O)N3CCN(CC(=O)O)CCN(CC(=O)O)CCN(CC(=O)O)CC3)cc(c2)CSC[C@@H](C(=O)O)NC(=O)[C@H](Cc2ccccc2)NC(=O)[C@H](CCC(N)=O)NC(=O)C([C@@H](C)O)NC(=O)[C@@H]2CCCN2C(=O)[C@@H]2CCCN2C1=O (single isomer, unassigned) [^68Ga-SDYD08, metal not drawn] | ≥ 10 | ≥ 10 | significant radioactive uptake in the tumor sites | quite stable in PBS buffer | – | – | – | – | – | – | – | –
